Laboratory results from PMC10003451, “Phosphorylated Peptide Derived from the Myosin Phosphatase Target Subunit Is a Novel Inhibitor of Protein Phosphatase-1” (International Journal of Molecular Sciences, 2023).
Where no end group is shown, it is not given here. [ ]: non-standard residue; d: D form. pT = C[C@@H](OP(=O)(O)O)[C@H](N)C(=O)O

Legend:
[1] = target: T1, recombinant protein phosphatase-1 catalytic subunit alpha (PP1cα) (UniProt P62136 1-330); assay: MST; label-free (Monolith NT.LabelFree, intrinsic fluorescence of rPP1cα); 16-point two-fold peptide dilution 9.16 nM-300 µM mixed with rPP1cα 2 µM; 25 mM Tris/HCl, 100 mM NaCl, 1 mM DTT, 0.1% PEG 8000, pH 8.0; details: both partners purified
T1 construct: protein phosphatase-1 catalytic subunit, alpha isoform; recombinant; also called rPP1cα; recombinant PP1c; source: E. coli, purified from the bacterial lysate

[2] = target: Flag-MYPT1-PP1c complex (myosin phosphatase holoenzyme) ( | human (endogenous in …, UniProt O14974 1-1030; P62140 1-327); assay: cell-based or functional assay
[3] = target: native catalytic subunit of protein phosphatase-1 (PP1c) from rabbit skeletal muscle (rabbit, UniProt P62139 1-330); assay: cell-based or functional assay
[4] = target: T1, recombinant protein phosphatase-1 …; assay: ITC; MicroCal ITC200; rPP1cα (0.5-2 µM) in the cell, peptide (5-20 µM) in the syringe, 19 injections of 2 µL; 25 mM Tris/HCl pH 8.0, 150 mM NaCl, 1 mM TCEP; 25 °C; one set of sites model; details: both partners purified

Chain of native catalytic subunit of protein phosphatase-1 (PP1c) from rabbit skeletal muscle (P62139 whole entry): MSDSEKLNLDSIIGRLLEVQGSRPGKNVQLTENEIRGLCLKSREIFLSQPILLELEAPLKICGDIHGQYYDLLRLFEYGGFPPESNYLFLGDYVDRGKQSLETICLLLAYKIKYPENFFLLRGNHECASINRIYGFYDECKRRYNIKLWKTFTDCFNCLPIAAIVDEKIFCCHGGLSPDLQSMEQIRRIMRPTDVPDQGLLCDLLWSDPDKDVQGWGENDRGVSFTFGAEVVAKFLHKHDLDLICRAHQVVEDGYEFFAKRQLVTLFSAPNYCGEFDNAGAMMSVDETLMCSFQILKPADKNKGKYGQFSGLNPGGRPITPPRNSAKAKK
T1 sequence (P62136 whole entry, canonical isoform): as the sequence (P62139 whole entry) above
Chain of Flag-MYPT1-PP1c complex (myosin phosphatase holoenzyme) ( | human (O14974 whole entry, chain 1 of 2): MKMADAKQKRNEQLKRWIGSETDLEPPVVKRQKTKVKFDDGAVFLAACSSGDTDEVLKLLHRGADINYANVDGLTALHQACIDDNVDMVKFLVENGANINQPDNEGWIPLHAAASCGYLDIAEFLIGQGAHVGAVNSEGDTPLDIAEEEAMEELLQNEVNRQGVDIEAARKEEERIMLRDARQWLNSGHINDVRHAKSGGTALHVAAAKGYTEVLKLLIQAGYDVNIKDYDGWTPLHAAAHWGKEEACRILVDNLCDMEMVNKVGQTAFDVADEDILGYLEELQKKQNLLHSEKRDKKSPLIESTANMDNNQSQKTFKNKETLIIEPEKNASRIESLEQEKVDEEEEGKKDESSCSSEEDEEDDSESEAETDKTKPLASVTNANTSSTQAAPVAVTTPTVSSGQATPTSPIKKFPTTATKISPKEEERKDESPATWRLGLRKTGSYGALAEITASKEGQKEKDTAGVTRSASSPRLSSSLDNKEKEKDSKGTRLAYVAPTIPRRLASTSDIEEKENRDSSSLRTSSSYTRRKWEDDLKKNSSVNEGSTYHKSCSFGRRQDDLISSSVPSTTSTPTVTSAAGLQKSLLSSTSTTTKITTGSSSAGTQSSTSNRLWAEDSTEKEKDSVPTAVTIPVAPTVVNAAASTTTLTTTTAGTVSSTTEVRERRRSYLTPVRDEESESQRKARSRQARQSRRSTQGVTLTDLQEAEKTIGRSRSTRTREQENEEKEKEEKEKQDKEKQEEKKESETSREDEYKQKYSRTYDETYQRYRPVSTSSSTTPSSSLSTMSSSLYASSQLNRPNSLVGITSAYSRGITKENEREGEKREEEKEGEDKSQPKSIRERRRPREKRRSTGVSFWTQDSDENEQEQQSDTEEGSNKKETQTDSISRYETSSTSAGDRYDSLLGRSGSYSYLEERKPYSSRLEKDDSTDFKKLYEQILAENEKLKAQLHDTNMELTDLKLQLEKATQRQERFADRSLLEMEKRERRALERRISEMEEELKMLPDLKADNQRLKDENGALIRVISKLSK
Chain of Flag-MYPT1-PP1c complex (myosin phosphatase holoenzyme) ( | human (P62140 whole entry, chain 2 of 2): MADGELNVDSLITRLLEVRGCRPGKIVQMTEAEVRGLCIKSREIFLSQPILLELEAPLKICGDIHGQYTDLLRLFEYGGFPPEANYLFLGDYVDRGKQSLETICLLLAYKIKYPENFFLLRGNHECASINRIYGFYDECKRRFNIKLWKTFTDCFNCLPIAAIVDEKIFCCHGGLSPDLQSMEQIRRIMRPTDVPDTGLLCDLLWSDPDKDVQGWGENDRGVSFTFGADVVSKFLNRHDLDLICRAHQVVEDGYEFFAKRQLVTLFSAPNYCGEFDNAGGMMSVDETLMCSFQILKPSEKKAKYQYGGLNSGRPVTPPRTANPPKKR

- Kd [1]: 33.2 ± 5.12 µM
- IC50 of inhibition of the phosphatase activity of Flag-MYPT1-PP1c with 32P-MLC20 substrate [2]: 12.2 µM
- IC50 of inhibition of the phosphatase activity of rabbit skeletal muscle PP1c with 32P-MLC20 substrate [3]: 3.84 µM
- half-life of dephosphorylation of 10 µM 32P-MLC20 by 100 nM PP1c with 0, 10, 100 and 500 µM peptide (101.6, 149.7, 227.9, 604.06 s); the peptide competes with the substrate P-MLC20 on PP1c [3]: 10.1 min
- half-life of dephosphorylation of 100 µM peptide by 100 nM PP1c in the presence of 10 µM P-MLC20 (dot blot; 87.9 min without P-MLC20) [3]: ~103 min
- Kd [4]: 0.39 ± 0.18 µM
B1: P-Thr696-MYPT1^690−701 (phosphorylated peptide of the inhibitory region of myosin phosphatase target subunit-1) (peptide)
peptide: RQSRRS[pT]QGVTL
notes: myosin phosphatase target subunit-1 (MYPT1), residues 690-701, phosphorylated at Thr696; no tags; also called R^690QSRRS(pT696)QGVTL^701; P-Thr-MYPT1^690−701; source: synthetic peptide, bought: Pepmic
